{"source": "paper doi:10.1101/2023.04.03.535215", "molecular_target": "Recombinant SARS-CoV-2 spike protein (SARS-CoV-2) (UniProt P0DTC2)", "assay": "ELISA", "data": [{"substance": "Native human surfactant protein A (from UniProt Q8IWL2 21-248) (natural protein)", "values": [{"measurement": "percent decrease of binding in 10 mM EDTA", "value": 46, "unit": "%"}]}]}
